Experimental data taken from patent US9580731B2, “Methods of producing 7-carbon chemicals via c1 carbon chain elongation associated with coenzyme B synthesis” (INVISTA North America S.á r.l., priority 2012, dated 2017).

Experiments:
Type in all cases: biochemical
[1] = Carboxylate reductase activity assay, N7-acetyl-7-aminoheptanoate to N7-acetyl-7-aminoheptanal (NADPH consumption); conditions: 2 mM N7-acetyl-7-aminoheptanoate, enhanced by gene product of sfp, room temperature, 20 min, against empty vector control, FIG. 12
Experimental: The activity of each of the N-terminal His-tagged carboxylate reductases of SEQ ID NOs: 3, 6, and 7 (see Examples 4, and FIG. 7) for converting N7-acetyl-7-aminoheptanoate to N7-acetyl-7-aminoheptanal was assayed in triplicate in a buffer composed of a final concentration of 50 mM HEPES buffer (pH=7.5), 2 mM N7-acetyl-7-aminoheptanoate, 10 mM MgCl2, 1 mM ATP, and 1 mM NADPH. The assays were initiated by adding purified carboxylate reductase and phosphopantetheine transferase or the empty vector control to the assay buffer containing the N7-acetyl-7-aminoheptanoate then incubated at room temperature for 20 min. The consumption of NADPH was monitored by absorbance at 340 nm.

[2] = Carboxylate reductase activity assay, pimelate semialdehyde to heptanedial (NADPH consumption); conditions: 2 mM pimelate semialdehyde, enhanced by gene product of sfp, room temperature, 20 min, against empty vector control, FIG. 13
Experimental: The N-terminal His-tagged carboxylate reductase of SEQ ID NO 7 (see Example 4 and FIG. 7) was assayed using pimelate semialdehyde as substrate. The enzyme activity assay was performed in triplicate in a buffer composed of a final concentration of 50 mM HEPES buffer (pH=7.5), 2 mM pimelate semialdehyde, 10 mM MgCl2, 1 mM ATP and 1 mM NADPH. The enzyme activity assay reaction was initiated by adding purified carboxylate reductase and phosphopantetheine transferase or the empty vector control to the assay buffer containing the pimelate semialdehyde and then incubated at room temperature for 20 min. The consumption of NADPH was monitored by absorbance at 340 nm.

[3] = Carboxylate reductase activity assay, pimelate to pimelate semialdehyde (NADPH consumption); conditions: 2 mM pimelate, enhanced by gene product of sfp, room temperature, 20 min, against empty vector control, FIG. 10
Experimental: A sequence encoding a HIS-tag was added to the genes from Segniliparus rugosus and Segniliparus rotundus that encode the carboxylate reductases of SEQ ID NOs: 4 and 7, respectively (see FIG. 7), such that N-terminal HIS tagged carboxylate reductases could be produced. Each of the modified genes was cloned into a pET Duet expression vector along with a sfp gene encoding a HIS-tagged phosphopantetheine transferase from Bacillus subtilis, both under the T7 promoter. Each expression vector was transformed into a BL21[DE3] E. coli host and the resulting recombinant E. coli strains were cultivated at 37° C. in a 250 mL shake flask culture containing 50 mL LB media and antibiotic selection pressure, with shaking at 230 rpm. Each culture was induced overnight at 37° C. using an auto-induction media.
The pellet from each induced shake flask culture was harvested via centrifugation. Each pellet was resuspended and lysed via sonication, and the cell debris was separated from the supernatant via centrifugation. […]
Enzyme activity assays (i.e., from pimelate to pimelate semialdehyde) were performed in triplicate in a buffer composed of a final concentration of 50 mM HEPES buffer (pH=7.5), 2 mM pimelate, 10 mM MgCl2, 1 mM ATP and 1 mM NADPH. […] The consumption of NADPH was monitored by absorbance at 340 nm.

B1: SEQ ID NO 7: Segniliparus rotundus carboxylate reductase, Genbank Accession No. ADG98140.1 (protein, listed as Segniliparus rotundus)
chain: MTQSHTQGPQASAAHSRLARRAAELLATDPQAAATLPDPEVVRQATRPGLRLAERVDAILSGYADRPALGQRSFQTVKDPITGRSSVELLPTFDTITYRELRERATAIASDLAHHPQAPAKPGDFLASIGFISVDYVAIDIAGVFAGLTAVPLQTGATLATLTAITAETAPTLFAASIEHLPTAVDAVLATPSVRRLLVFDYRAGSDEDREAVEAAKRKIADAGSSVLVDVLDEVIARGKSAPKAPLPPATDAGDDSLSLLIYTSGSTGTPKGAMYPERNVAHFWGGVWAAAFDEDAAPPVPAINITFLPLSHVASRLSLMPTLARGGLMHFVAKSDLSTLFEDLKLARPTNLFLVPRVVEMLYQHYQSELDRRGVQDGTREAEAVKDDLRTGLLGGRILTAGFGSAPLSAELAGFIESLLQIHLVDGYGSTEAGPVWRDGYLVKPPVTDYKLIDVPELGYFSTDSPHPRGELAIKTQTILPGYYKRPETTAEVFDEDGFYLTGDVVAQIGPEQFAYVDRRKNVLKLSQGEFVTLAKLEAAYSSSPLVRQLFVYGSSERSYLLAVIVPTPDALKKFGVGEAAKAALGESLQKIARDEGLQSYEVPRDFIIETDPFTVENGLLSDARKSLRPKLKEHYGERLEAMYKELADGQANELRDIRRGVQQRPTLETVRRAAAAMLGASAAEIKPDAHFTDLGGDSLSALTFSNFLHDLFEVDVPVGVIVSAANTLGSVAEHIDAQLAGGRARPTFATVHGKGSTTIKASDLTLDKFIDEQTLEAAKHLPKPADPPRTVLLTGANGWLGRFLALEWLERLAPAGGKLITIVRGKDAAQAKARLDAAYESGDPKLAGHYQDLAATTLEVLAGDFSEPRLGLDEATWNRLADEVDFISHPGALVNHVLPYNQLFGPNVAGVAEIIKLAITTRIKPVTYLSTVAVAAGVEPSALDEDGDIRTVSAERSVDEGYANGYGNSKWGGEVLLREAHDRTGLPVRVFRSDMILAHQKYTGQVNATDQFTRLVQSLLATGLAPKSFYELDAQGNRQRAHYDGIPVDFTAESITTLGGDGLEGYRSYNVFNPHRDGVGLDEFVDWLIEAGHPITRIDDYDQWLSRFETSLRGLPESKRQASVLPLLHAFARPGPAVDGSPFRNTVFRTDVQKAKIGAEHDIPHLGKALVLKYADDIKQLGLL
- carboxylate reductase activity for converting N7-acetyl-7-aminoheptanoate to N7-acetyl-7-aminoheptanal (NADPH consumption, absorbance at 340 nm) [1]: accepted N7-acetyl-7-aminoheptanoate as substrate
- carboxylate reductase activity for converting pimelate semialdehyde to heptanedial (NADPH consumption, absorbance at 340 nm) [2]: accepted pimelate semialdehyde as substrate
- carboxylate reductase activity for converting pimelate to pimelate semialdehyde (NADPH consumption, absorbance at 340 nm) [3]: accepted pimelate as substrate
